Experimental data as given in paper PMC10620080, “The sex-specific factor SOA controls dosage compensation in Anopheles mosquitoes”.

Target: T1, MBP-SOA(1-331), myb+BTB (Anopheles gambiae, UniProt Q7Q6N8 1-331)
T1 sequence: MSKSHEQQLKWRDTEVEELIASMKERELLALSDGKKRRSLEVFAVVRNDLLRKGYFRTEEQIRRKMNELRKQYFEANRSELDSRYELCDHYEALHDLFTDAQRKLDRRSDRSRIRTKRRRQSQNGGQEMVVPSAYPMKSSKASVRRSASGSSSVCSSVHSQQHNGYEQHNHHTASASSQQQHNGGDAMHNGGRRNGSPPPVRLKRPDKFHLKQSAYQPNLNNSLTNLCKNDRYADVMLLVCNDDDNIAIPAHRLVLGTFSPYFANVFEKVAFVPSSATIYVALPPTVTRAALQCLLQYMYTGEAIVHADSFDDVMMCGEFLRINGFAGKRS
Test: fluorescence polarization; FP: 10 mM Na-HEPES pH 7.4, 150 mM NaCl, 1 mM TCEP, 0.1 g/l BSA, 5% glycerol, 0.05% Triton X-100, 5 nM DNA, 20 C; EMSA: 20 mM HEPES-KOH pH 7.5, 100 mM KCl, 0.05% NP-40, room temperature
Details: protein: recombinant; tags: N-terminal His6-MBP; label: Cy5 on one strand; blunt

B1: CA10 dsDNA 20mer (dsDNA)
DNA 1: CACACACACACACACACACA
DNA 2: TGTGTGTGTGTGTGTGTGTG
Question: With B1 as the binder, how does the Kd read?
Answer: 40 nM
